Measurements as given in patent publication US20130224224A1 (Boehringer Ingelheim, published 2013).

T1: cynomolgus CX3CR1 (cynomolgus, UniProt P49238 1-355 (human entry))
T1 construct: transiently expressed on HEK293T cells; also called cyCX3CR1; cyno CX3CR1
T1 chain: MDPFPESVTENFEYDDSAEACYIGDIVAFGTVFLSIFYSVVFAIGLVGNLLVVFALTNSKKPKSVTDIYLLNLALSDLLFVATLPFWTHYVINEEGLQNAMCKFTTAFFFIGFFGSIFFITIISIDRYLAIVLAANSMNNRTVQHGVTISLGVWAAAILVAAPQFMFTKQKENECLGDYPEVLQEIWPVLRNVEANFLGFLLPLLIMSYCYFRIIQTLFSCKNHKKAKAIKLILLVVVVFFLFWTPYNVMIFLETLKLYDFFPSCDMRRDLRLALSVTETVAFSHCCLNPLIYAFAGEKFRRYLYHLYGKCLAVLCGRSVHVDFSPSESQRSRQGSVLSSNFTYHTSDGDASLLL

T2: human CX3CR1 (human, UniProt P49238 1-355)
T2 construct: overexpressed on CHO, BA/F3 or HEK293T cells; also called huCX3CR1; hCX3CR1
T2 sequence: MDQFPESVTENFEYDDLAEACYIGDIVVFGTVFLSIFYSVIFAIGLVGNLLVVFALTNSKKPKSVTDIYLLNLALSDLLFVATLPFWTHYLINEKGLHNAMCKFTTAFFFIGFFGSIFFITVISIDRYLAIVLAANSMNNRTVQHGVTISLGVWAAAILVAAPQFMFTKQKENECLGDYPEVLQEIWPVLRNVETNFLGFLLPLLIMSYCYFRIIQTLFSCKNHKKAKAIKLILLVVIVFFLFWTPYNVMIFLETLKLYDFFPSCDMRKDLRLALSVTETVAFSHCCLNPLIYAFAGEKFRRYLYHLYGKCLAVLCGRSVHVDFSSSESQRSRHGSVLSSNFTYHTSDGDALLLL


Columns and labels:
[1] = target: T1, cynomolgus CX3CR1; experiment: A647-fractalkine competition FACS, HEK293T cynomolgus CX3CR1
Excerpt: (§1) Periplasmic extracts were screened in a human CX3CR1/human Fractalkine FACS competition assay to assess the blocking capacity of the expressed VHHs. Human CX3CR1 was presented on CHO cells overexpressing CX3CR1. Both a setup using cells harvested from an actively growing culture and a setup using frozen cells was used. As a detection reagent labeled fractalkine was used (R&D Systems, Minneapolis, Minn., USA) labeled with alexa647 (A647-Fractalkine) at a degree of labeling of 1. To setup the assay, first a titration series of the labeled fractalkine was performed on the CHO-huCX3CR1 cells in order to determine the EC50 value for binding. Initially screening was performed at a higher concentration of fractalkine (3 nM) to increase the assay robustness. To increase the sensitivity of the screening to a maximum, the EC30 concentration (1 nM) was chosen for subsequent screening. In brief 50 μl of periplasmic extract was added to 6 nM labeled fractalkine (50 μ;) and 200 000 CHO-huCX3CR1 cells. After one hour incubation at 4 C, cells were washed three times before read out was performed on a FACS Array (Becton Dickinson). First a gate was set on the intact cells as determined from the scatter profile. Next, dead cells were gated out by their fluorescence profile from the PI stain (Sigma, St Louis, US). The fluorescence profile from the alexa647 label was determined for each sample and used for calculation of blocking capacity. As controls, conditions were taken along where there was no VHH present in the peri extract or a known irrelevant VHH and samples were included where excess cold fractalkine was included. For each sample the percentage block was determined using the control samples to determine the assay window.
(§2) For later identified VHHs, a human Fractalkine competition FACS was set up using human or cynomolgus CX3CR1 expressed in HEK293T cells. Both the human and the cynomolgus receptor was transiently transfected in HEK293T cells and transfections were matched by the binding of the labeled ligand, human fractalkine. The competition was evaluated using the EC30 concentration of fractalkine and as such obtained IC50 values are a good estimate of the Ki value, a measure for affinity (Table 22). The experiment was performed as described in Example 4.

[2] = target: T2, human CX3CR1; experiment: A647-fractalkine competition FACS, HEK293T human CX3CR1
Excerpt: as §1, §2

[3] = target: T2, human CX3CR1; experiment: A647-fractalkine competition FACS, BA/F3-huCX3CR1
Excerpt: as §1
(§3) The blocking capacity towards the ligand fractalkine of the VHHs was evaluated in a human CX3CR1 competition FACS as outlined in Example 4. Either CHO-huCX3CR1 cells, BA/F3-huCX3CR1 cells or transiently transfected HEK293T cells were used. The amount of labeled ligand used in the different competition setups was also varied. The IC₅₀ values for VHHs blocking the interaction of human fractalkine to human CX3CR1 are depicted in Table 19.

[4] = target: T2, human CX3CR1; experiment: periplasmic extract, A647-fractalkine competition FACS, CHO-huCX3CR1
Excerpt: as §1

[5] = target: T1, cynomolgus CX3CR1; experiment: A647-fractalkine competition FACS, cynomolgus against human CX3CR1
Excerpt: as §1, §2

[6] = target: T2, human CX3CR1; experiment: A647-fractalkine competition FACS, CHO-huCX3CR1
Excerpt: as §1, §3

[7] = target: T2, human CX3CR1; experiment: cell-based or functional assay
[8] = target: T2, human CX3CR1; experiment: A647-fractalkine competition FACS, HEK293-huCX3CR1
Excerpt: as §1, §3

[9] = target: T2, human CX3CR1; experiment: fractalkine competition FACS

% block [1] | IC50 [1] | % block [2] | IC50 [2] | % block [3] | IC50 [3] | % block [4] | ratio (cynomolgus/human IC50) [5] | % block [6] | IC50 [6] | % block, fractalkine induced chemotaxis [7] | IC50, fractalkine induced chemotaxis [7] | % block [8] | IC50 [8] | % block [9] | IC50 [9] | Binder
95% | 470 nM | 92% | 67 nM | 99% | 33 nM | 90.1% | 7.05 | 108% | 25 nM | 73% | 100 nM | 92% | 67 nM | – | – | CX3CR1BIIPMP54B3 (VHH, also called 54B03; not shown: C-terminal c-myc and His6 tags) VHH: EVQLVESGGGSVQAGESLRLSCAASGSIFSSNAMAWYRQAPGKQRDLVAAINSVGITKYADSVKGRFTISRDNAKNTVYLQMNSLKPEDTAVYYCTSDPRRGWDTRYWGQGTQVTVSS
– | – | – | – | – | – | – | – | – | – | – | – | – | – | 98% | 2.8 nM | CX3CR1BII66B02 (N52T, Q108L) (VHH, name in Kabat numbering, Kabat numbering) VHH: EVQLVESGGGSVQAGESLRLSCAASGSIFSSNAMAWYRQAPGKRRDLVAAITSVGVTKYADSVKGRFTISRDNAKNTVYLQMNSLKPEDTAVYYCTSDPRRGWDTRYWGQGTLVTVSS
95% | 160 nM | 96% | 46 nM | – | – | 96.5% | 3.58 | – | – | – | – | 96% | 46 nM | – | – | CX3CR1BIIPMP61F11 (VHH, not shown: C-terminal c-myc and His6 tags) VHH: KVQLVESGGGSVQAGESLRLSCAASGSIFSSNAMAWYRQPPGKQRDLVAAINSVGITKYADSVKGRFTIFRDNAKNTVYLQMNSLKPEDTAVYYCTSDPRRGWDTRYWGQGTQVTVSS
100% | 200 nM | 96% | 42 nM | – | – | 94.5% | 4.8 | – | – | – | – | 96% | 42 nM | – | – | CX3CR1BIIPMP61G4 (VHH, also called 61G04; not shown: C-terminal c-myc and His6 tags) VHH: KVQLVESGGGSVQAGGSLRLSCAASGSIFSSNAMAWYRQAPGKQRDLVAAINSVGITKYADSVKGRFTISRDNAKNTVYLQMMSLKPEDTAVYYCTSDPRRGWDTRYWGQGTQVTVSS
92% | 45 nM | 94% | 10 nM | – | – | 94.5% | 4.37 | – | – | – | – | 94% | 10 nM | – | – | CX3CR1BIIPMP61B2 (VHH, also called 61B02; not shown: C-terminal c-myc and His6 tags) VHH: EVQLVESRGGSVQAGASLRLSCAASGSIFSSNAMAWYRQAPGKQRDLVAVINTVGITKYADSVKGRFTISRDNAKNTVYLQMNSLKPEDTAVYYCTSDARRGWDTRYWGQGTQVTVSS
92% | 68 nM | 64% | 10 nM | – | – | 74.6% | 6.48 | – | – | – | – | 64% | 10 nM | – | – | CX3CR1BIIPMP54H1 (VHH, also called 54H01; not shown: C-terminal c-myc and His6 tags) VHH: EVQLVESGGGSVQAGESLRLSCAASGTIFSSNAMAWYRQAPGKQRDLVAGINSVDITKYADSVKGRFTVSRDNAKNTVYLQMNSLKPEDTAVYYCTSDPRRGWNTRYWGQGTQVTVSS
– | – | – | – | – | – | – | – | – | – | – | – | – | – | 98.1% | 1.3 nM | CX3CR1BII66B02 (S53T, Q108L) (VHH, name in Kabat numbering, Kabat numbering) VHH: EVQLVESGGGSVQAGESLRLSCAASGSIFSSNAMAWYRQAPGKRRDLVAAINTVGVTKYADSVKGRFTISRDNAKNTVYLQMNSLKPEDTAVYYCTSDPRRGWDTRYWGQGTLVTVSS
89% | 300 nM | 96% | 60 nM | – | – | 92.1% | 5.02 | – | – | – | – | 96% | 60 nM | – | – | CX3CR1BIIPMP61G3 (VHH, also called 61G03; not shown: C-terminal c-myc and His6 tags) VHH: KVQLVESGGGSMQAGESLRLSCAASGSIFSSNAMAWYRQAPGKQRDLVAAINSVGITKYADSVKGRFTISRDNAKNTVYLQMMSLKPEDTAVYYCTSDPRRGWDTRYWGQGTQVTVSS
91% | 31 nM | 100% | 49 nM | – | – | 86.6% | 0.64 | – | – | – | – | 100% | 49 nM | – | – | CX3CR1BIIPMP54A4 (VHH, also called 54A04; not shown: C-terminal c-myc and His6 tags) VHH: EVQLVESGRGSVQAGESLRLSCAASGSIFSSNAMAWYRQAPGKQRDLVAGINSVGITKYADSVKGRFTISRDNAKNTVYLQMNSLKPEDTAVYYCTSDPRRGWDTRYWGQGTQVTVSS
91% | 72 nM | 95% | 84 nM | 99% | 38 nM | 64.1% | 0.85 | 101% | 15 nM | 33% | – | 95% | 84 nM | – | – | CX3CR1BIIPMP54D8 (VHH, also called 54D08; CX3CR1BII54D08; not shown: C-terminal c-myc and His6 tags) VHH: EVQLVESGGGSVQAGGSLRLSCAASGSIFSSNAMAWYRQAPGKQRDLVAGINSVGITKYADSVKGRFTISRDNAKNTVYLQMNSLKPEDTAVYYCTSDPRRGWDTRYWGQGTLVTVSS
– | – | – | – | – | – | – | – | – | – | – | – | – | – | 98.3% | 1.2 nM | CX3CR1BII66B02 (S53G, Q108L) (VHH, name in Kabat numbering, Kabat numbering) VHH: EVQLVESGGGSVQAGESLRLSCAASGSIFSSNAMAWYRQAPGKRRDLVAAINGVGVTKYADSVKGRFTISRDNAKNTVYLQMNSLKPEDTAVYYCTSDPRRGWDTRYWGQGTLVTVSS
– | – | – | – | – | – | – | – | – | – | – | – | – | – | 98.2% | 0.8 nM | CX3CR1BII66B02 (S53P, Q108L) (VHH, name in Kabat numbering, Kabat numbering) VHH: EVQLVESGGGSVQAGESLRLSCAASGSIFSSNAMAWYRQAPGKRRDLVAAINPVGVTKYADSVKGRFTISRDNAKNTVYLQMNSLKPEDTAVYYCTSDPRRGWDTRYWGQGTLVTVSS
96% | 46 nM | 98% | 82 nM | – | – | 70.3% | 0.55 | – | – | – | – | 98% | 82 nM | – | – | CX3CR1BIIPMP61E2 (VHH, also called 61E02; not shown: C-terminal c-myc and His6 tags) VHH: EVQLVESGGGSVQAGESLRLSCAASGSIFSSNAMAWYRQAPGKQRDLVAGINSVGITKYADSVKGRFTISRDNAKNTVYLQMNSLKPEDMAVYYCTSDPRRGWDTRYWGQGTQVTVSS
100% | 120 nM | 99% | 14 nM | – | – | – | 8.29 | – | – | 54% | 400 nM | 99% | 14 nM | – | – | CX3CR1BIIPMP66G01 (VHH, also called CX3CR1BII66G01; not shown: C-terminal c-myc and His6 tags) VHH: EMQLVESGGGSVQAGESLRLSCAASGSIFSSNAMAWYRQAPGKQRDLVALINSVGITKYADSVKGRFTISRDNAKNTVYLQMNSLKPEDTAVYYCTSDGRRGWDTRYWGQGTQVTVSS
